This is an account of results in publication PMC2764113 (Molecular Microbiology, 2009).

This data set deals with the molecule itself. Briefly: native gel or EMSA. A general note: A gel shift assay detects complexes by their altered migration in electrophoresis.

B1: Q115R Sin (enzyme, Staphylococcus aureus (plasmid pI9789))
chain: MIIGYARVSSLDQNLERQLENLKTFGAEKIFTEKQSGKSIENRPILQKALNFVRMGDRFIVESIDRLGRNYNEVIHTVNYLKDKEVQLMITSLPMMNEVIGNPLLDKFMKDLIIRILAMVSEQERNESKRRQAQGIQVAKEKGVYKGRPLLYSPNAKDPQKRVIYHRVVEMLEEGQAISKIAKEVNITRQTVYRIKHDNGLS
In the case of B1, the binding result was “binds”.

B2: T77I/I100T/Q115R Sin (enzyme, Staphylococcus aureus (plasmid pI9789))
chain: MIIGYARVSSLDQNLERQLENLKTFGAEKIFTEKQSGKSIENRPILQKALNFVRMGDRFIVESIDRLGRNYNEVIHIVNYLKDKEVQLMITSLPMMNEVTGNPLLDKFMKDLIIRILAMVSEQERNESKRRQAQGIQVAKEKGVYKGRPLLYSPNAKDPQKRVIYHRVVEMLEEGQAISKIAKEVNITRQTVYRIKHDNGLS
For B2, the binding result was “binds”.
